Reference: the DeepSol protein solubility set

Assay: soluble on expression in E. coli; label from the status in PepcDB or PDB records

Sequence | soluble on expression in E. coli
VVMHPGFGAAALTGATGAAAAAAAAPTPQASPLGGRGTGASAEPATSAHSHGGGGGFGNVVSGTPMETTVSLPPQVSSHAGGRGASGSTDSSAEASTDHKRARTNNPGAGGARAAQAAALPSLDAVTSQQAAAAAGMAPAAGTLGAVPPAYPAVAVAPAAEVNGAMPYVDALTEQLRAVRLLQPTPPSSASSAPVRASAAAMADVTENVAVKAKGKKKGAAAAAAAQPPPPPLLPPAPRTEMDRRAALSGAAGAFMAACDEAVRELLLAMNFSDHDAEAIITGAAPPQLEHAASGVVSLVLRLKSSVLSHYIKHLNNAAARSQAAAASTAAVDGNAEDAADKHGAKATSAAKAPPAAGGGAGDAADQQLSTGEACLVQLQLYGGVGDALLQLLRSKLRGSACQLWALAHIVHPHPSRSEKESLAAYTGKSTKQVTDWFTNWRARHW | not soluble
MTVVIGVLALQGAFIEHVRHVEKCIVENRDFYEKKLSVMTVKDKNQLAQCDALIIPGGESTAMSLIAERTGFYDDLYAFVNPSKVTWGTCAGLIYISQQLSNEAKLVKTLNLLKVKVKRNAFGRQAQSSTRICDFSNFIPHCNDFPATFIRAPVIEEVLDPEHVQVLYKLDGKDNGGQELIVAAKQKNNILATSFHPELAENDIRFHDWFIREFVLKNYSK | not soluble
TESGTAAQDPEALAAEIGPVKQVSLGEQIDAALAQQGEQLFNTYCTACHRLDERFIGPALRDVTKRRGPVYIMNVMLNPNGMIQRHPVMKQLVQEYGTMMTDMALSEEQARAILEYLRQVAENQ | soluble
MRVAYVLSSPRAASHKLGQMILPQLEAGTHGVEVVGIFFFDDNTLVLQKGNPIGERLAKVAKEKGILLMMCDLCALERGLAEGEPRWCTPEGEGRKTPGTCRVSPHVVEGVEVGCFPDLYRALAGRVDQVITL | soluble
MRVDEFLKERNINVGDFVRITKEEDGEEVTYEGYIMPPYELSAGDTLVLKLENGYNIGIALEKIRRIEVLERAKVKPEVHFEALIEGKPGLPEVTIIGTGGTIASRIDYETGAVYPAFTAEELAKALPEIFEVANVKPKLLFNIFSEDMKPKHWVKIAHEVAKALNSGDYGVVVAHGTDTMGYTAAALSFMLRNLGKPVVLVGAQRSSDRPSSDAAMNLICSVRMATSEVAEVMVVMHGETGDTYCLAHRGTKVRKMHTSRRDAFRSINDVPIAKIWPNGEIEFLRKDYRKRSDEEVEVDDKIEEKVALVKVYPGISSEIIDFLVDKGYKGIVIEGTGLGHTPNDIIPSIERAVEEGVAVCMTSQCIYGRVNLNVYSTGRKLLKAGVIPCEDMLPETAYVKLMWVLGHTQNLEEVRKMMLTNYAGEITPYTRFDTYLR | soluble
MRPLKVALVNIPLRVPGSDAWISVPPQGYGGIQWVVANLMDGLLELGHEVFLLGAPGSPAGRPGLTVVPAGEPEEIERWLRTADVDVVHDHSGGVIGPAGLPPGTAFISSHHFTTRPVNPVGCTYSSRAQRAHCGGGDDAPVIPIPVDPARYRSAADQVAKEDFLLFMGRVSPHKGALEAAAFAHACGRRLVLAGPAWEPEYFDEITRRYGSTVEPIGEVGGERRLDLLASAHAVLAMSQAVTGPWGGIWCEPGATVVSEAAVSGTPVVGTGNGCLAEIVPSVGEVVGYGTDFAPDEARRTLAGLPASDEVRRAAVRLWGHVTIAERYVEQYRRLLAGATWK | soluble
MGSDKIHHHHHHLTYDEIKKNKEVCECLKKGNENLGVLGFTDHSVAHCTMVAKRAAYILKKFGYSESDIEMVKIAGFMHDIGNVVNRSRHAEYGAILANEILKETDMSLKDRITVVSAIGHHDESTGGATDPISAALIIADKTDVRRNRVRNKAKENFDIHDRVNYAVTDAALKINMDKKVIALNLQIDTKICSMYEYFEIFLGRMMMCRGAAEVLGATFKLTANGSKVL | not soluble
MGSDKIHHHHHHMIETQKEQERALLVGVELQQTDNFDMSMEELASLAKTAGALVKGVYTQKREKYDSKTFVGSGKLDEIAQMVEADEIDTVIVNNRLTPRQNVNLEEILGVKVIDRMQLILDIFAMRARSHEGKLQVHLAQLKYMLPRLVGQGIMLSRQAGGIGSRGPGESQLELNRRSIRNQIHDIERQLKTVEKNRATVRERRLQSGVFKIGLIGYTNAGKSTIMNVMTDKRQYEADELFATLDATTKQINLADKFNVTLTDTVGFIQDLPTELISAFKSTLEESMNVDLLLHIIDASDPNHSEQEQVVLDILKDLDMLDIPRLALYNKLDKTDDSFTPSQFPHVMLSAKDENAKGHIQMMVLAKIKTMFERFEVRVPLAESYKLHDLATLALIENRTYEEDVEVVSGYIASANKWKLEEFYDGLS | not soluble
MQRIELLPLVLDNQTFFQNCPDIIPRIIPFSPCLDGSEVNFICGPLHTGKTSFLRQVAGSLQGLKVYINFEDSRFRDLKPETLQEIKEIAAEYCIKGPEDEEGLAGKDIDDKERPEVPVSYFLDEIHYLPGWGDRVYSLQNDGARVFVTSSSAGIISKEISSRFADGIKIIRLLPFSFKEYLTLKGLRVPRPNFLTPSRCDEMLCLFLQYFENGGFPEIIKSGDFRLSRKYFEETLQKEIIERHTIQDPEGLKKLAVFLISNMASEYSIDTLKRAGGIKDEATVRNYLDYLEEAFLLYRVPMFRHKSEKPDYGKEGENENERESNIPCKVYAGDTGFFKSVFPRYPDSLGLRFENLVFLELLRKGKQVYYFHNTRECDFLIAEKESQKVTAAVQVCLCFGGTAVREREVLGLMEAMEEFGLNEGLILTMDDEEVMEIEGKDGENKRIIINSVWKWMLELEHHHHHH | not soluble
MAQQGVFTLPANTSFGVTAFANAANTQTIQVLVDNVVKATFTGSGTSDKLLGSQVLNSGSGAIKIQVSVNGKPSDLVSNQTILANKLNFAMVGSEDGTDNDYNDGIAVLNWPLG | soluble
MNGIIVDKEKVHPGMPDVVKDAKIALLDAPLEIKKPEFDTNLRIEDPSMIQKFLAQEENMLREMVDKIKSVGANVVITQKGIDDMAQHYLSRAGIYAVRRVKKSDMDKLAKATGASIVSTIDEISSSDLGTAERVEQVKVGEDYMTFVTGSKNHHHHHH | soluble
MSLEEFVKTGKTVCILINKQGRIYYSNIGKDVAEKCLEDIHIFDHLPADGTVSYNVGYYTVTADTVDLDEAHYYLILIQPQGNLYKYAYRDSFTGLYNRNYWEQLISGKMHRPIPKRFTLIVIDVDNLKSLNDNRGHLAGDKAIRIVGKSIRESIRKQDIAVRYGGDEFFILLANTKKAIVEKVINRVKENIRKRGKEENIHIEISVGMACSNSINKLEKVITMADYNMYKEKREKKVQVKHIGEGHHHHHH | not soluble
MEQKFCQSCGMPLNPEVLGTEKDGSKNEEYCTYCYADGHFTVECTMDEMINQCAQFVDEFNKGSEVKMTKEEAIANMKQFFPMLKRWKQ | not soluble
MSLSQPQPPSRLLVMKFGGTNMQSAHAIRHSASLAGRSVREGVKVVVVVSAMAGVTNGLLHLADAAQSGDIARANDEIAALRTRHFTAAQELGAAPDSETVRELRELHETLRQAVYGVYLLRELTPRSRDLIVAFGERLSAPLMSLALEQSGLRARHLTGGEAGILTDTNFGNARPLPGTYERVGDRLSGFLSAGVTPVIAGFMGETEQGAITTLGRGGTDFSATIVGKALGADEVWAWKDVDGVMSADPRVVGDASNIGVLSYGEVMELAYFGAKVLHPLAVTPLQDSGIPLRVKSAADPDFAGTLVRSQAEEIPGRPVKAVTAIKNVSLLTVTGAGVLGVPEVIASVFTAIARENITLLMVSQSSSMSNVSLAVPSADAARALQALRAGLSSELNVEETNGVAVLAIVGSGMRGQQGVSARLFTALASEDINILMISQGSSELNISVALSGEEVDRATAAVHAAFTLSQPEGHHHHHH | not soluble
MGLIFAKLWSLFCNQEHKVIIVGLDNAGKTTILYQFLMNEVVHTSPTIGSNVEEIVVKNTHFLMWDIGGQESLRSSWNTYYSNTEFIILVVDSIDRERLAITKEELYRMLAHEDLRKAAVLIFANKQDMKGCMTAAEISKYLTLSSIKDHPWHIQSCCALTGEGLCQGLEWMTSRIGVR | soluble
DVNFILTFPTGYGKTTLSLEIVRMIDLKPTQNFSRLIHVVPTRSLAKDIQNSACERGLGFAVQYSFTPSHIKSPLFLAKFIITTYDSFLLNLYKASIGEPFSYHGHYDLPRFGIYTSLVHFDEFHLMNEGNSWTSLLGAVRHLSKVGVNMILSSATPSKSVEEELIRMMENRKVVRLAVVNEYGESVKNRNCV | not soluble
MGSDKIHHHHHHMEEYIRRILTLGRKRLEKFALKGGKPLPERPLIVKLMEEIRGFLGSGENRVILLYGLRGVGKTTMLAQLYLKLIGEVSGERILYASVDEIKMLGYRLKDVFESYEHIIGERLEELREPTIFLLDEVHYDEEWDLALKVAYDRARNLMIVATGSSAIELKLSTDLARRAKRFHITPLTFTEYLLLKGIRVNEEVKKVLKRLLLAGEVEGIEEEIRKTFLTFDPIEVERYLLYGSLPLALSSREPLEETYSIVERIIRWDLAKMGFSQEVLEKAFLLMLMLASGEALNYDRLTSRLGISRPVLAKLLSAFENLEVIFPVRAYGSLGKAIRKTPKYKFLAPVIRTSILNHFGLLEVNEKILGNLLEDVVALYLYIIARELSGSVTYDAEKGGADFILTTPIGRIVLEVGWGKKGKEQVKRTMKKIGAERGIIIHGGDFREKNGVIWLPKEWFLLML | not soluble
MNSQNPDDHEDTTVVGFEVPVSPVSSYNNVYSSTEDETRDPPAVPPHLQHSLLGNQGSMELAYAPQNVVLNHLYIENRDAPRSVVALGFSHRFRTKFVTVVIYKPVQRRGSANV | not soluble
GVRFAFGPTVDFHFGENYAFSTGAWYLSSRAGLSQSVPGLTYKEIVSLQSVQIPVTFKAYTNEIATNMKLYFQLGGLATFNFYEKFKESTPSNSSYDDKYNVFDVSLYVGAGVSYKIGESNALFGGFYYSRGLMNMLDGSTIPGTSDRYKKAAKYNNDLVGLEVGITF | not soluble
RTNRTGMATAIPDSLHKIFYTAAGRRVEDAGGILPDIEVKQDTAATLLYYMAINNDVFDFVTGYVLKHKTIAKPEDFSITNEDYAAFCKMMEEKKFDYDRQSGKMLDKLEELAKIEGYLPEANSELKALREKLKPNLSRDLLRFKKEITNYLNNEIVTRYYYERGSIRQSLPEDKVVKEAIKLLKDHPEQIRQILAAPKAENKG | not soluble
MGSDKIHHHHHHMAALENKIDFAIAFAVNNANPNGDPLNGNRPRTTSEGLGEVSDVALKRKIRNRLQDAGESVFVQSDDRSDDGAKSLSDRFNTYLKTLPKDEQKQKNVVFGKVCERWLDVRSFGQVFAFKKAKDTDEVSIGVRGPVSIQPAFSINPIAIDDVQITKSVNSETTDSGKKSSDTMGMKYRVSGRAVYVTYGSISPQLAERTGFSAEDAEKIKEALVTLFENDESSARPSGSMEVLDVVWFAHNCKGGQYSSAKVHRSVSVDADGTVNVDDASIPGLRYEVIEGR | not soluble
GSHMDADGKLLTEGGENENLRKNASKKETSLFQGFKSYLPIAELAIENTERLNY | soluble
GQSITDYNYKKPLHNDYQILDKSKIFGSNSGSFVMYSMKKDKYYIYNEKESRKRYSPNSTYKIYLAMFGLDRHIINDENSRMSWNHKHYPFDAWNKEQDLNTAMQNSVNWYFERISDQIPKNYTATQLKQLNYGNKNLGSYKSYWMEDSLKISNLEQVIVFKNMMEQNNHFSKKAKNQLSSSLLIKKNEKYELYGKTGTGIVNGKYNNGWFVGYVITNHDKYYFATHLSDGKPSGKNAELISEKILKEMGVLNGQ | soluble
